The results in this text go back to patent CN114478780A (AGRICULTURAL UNIV IN CHINA, dated 2022).

One assay addresses 细胞表面的GPC3蛋白 (UniProt P51654). As to the kind of experiment: cell-based or functional assay.
Another assay deals with GPC3-his蛋白 (UniProt P51654 25-559). As to the kind of experiment: SPR (Biacore), GPC3-his amine-coupled on CM5, antibody as analyte, 1:1 Langmuir fit. Background: SPR reads the build-up and loss of mass on a sensor chip optically.

HN3-PE24 gave a 杀伤活性 IC50, Hep3BLG cells, 72 h, luciferase viability with 细胞表面的GPC3蛋白 of 0.109 mg/L.

B1: HN3 (antibody, V domains shown)
VH: QVQLVQSGGGLVQPGGSLRLSCAASYFDFDSYEMSWVRQAPGKGLEWIGSIYHSGSTYYNPSLKSRVTISRDNSKNTLYLQMNTLRAEDTATYYCARVNMDRFDYWGQGTLVTVSS
As to B1, binding with GPC3-his蛋白 was put at a Kd of 1.95 nM.

A word on the Kd: it is a measure of binding affinity in units of concentration. High values mean a looser complex, low ones a tighter complex.
